Key:
[1] = biological target: cytosolic domain of yeast Tom70 (His-Tom70_(38–617)) (yeast (Saccharomyces cerevisiae)) (UniProt P07213); assay: pull-down; purified His-Tom70cd (50 pmol per 100 μl) pre-bound to Ni-NTA beads, incubated 40 min at 30 °C with typically 7% (v/v) reticulocyte lysate containing the [35S]-labelled protein; 10 mM MOPS/KOH, 20 mM imidazole, 150 mM KCl, 1% BSA, pH 7.2; eluted with 1 M imidazole, SDS-PAGE, phosphorimager; in some samples the bead-bound Tom70cd was pretreated with NEM and washed before the lysate was added
[2] = biological target: Tom70cd pretreated with N-ethylmaleimide (NEM) (yeast (Saccharomyces cerevisiae)) (UniProt P07213); assay: as above
[3] = biological target: Tom70 in the outer membrane of isolated yeast mitochondria (wild type) (S. cerevisiae (endogenous in isolated yeast mitochondria)) (UniProt P07213)
Tom70 in the outer membrane of isolated yeast mitochondria (wild type) (S. cerevisiae (endogenous in isolated yeast mitochondria)), sequence (P07213 whole entry): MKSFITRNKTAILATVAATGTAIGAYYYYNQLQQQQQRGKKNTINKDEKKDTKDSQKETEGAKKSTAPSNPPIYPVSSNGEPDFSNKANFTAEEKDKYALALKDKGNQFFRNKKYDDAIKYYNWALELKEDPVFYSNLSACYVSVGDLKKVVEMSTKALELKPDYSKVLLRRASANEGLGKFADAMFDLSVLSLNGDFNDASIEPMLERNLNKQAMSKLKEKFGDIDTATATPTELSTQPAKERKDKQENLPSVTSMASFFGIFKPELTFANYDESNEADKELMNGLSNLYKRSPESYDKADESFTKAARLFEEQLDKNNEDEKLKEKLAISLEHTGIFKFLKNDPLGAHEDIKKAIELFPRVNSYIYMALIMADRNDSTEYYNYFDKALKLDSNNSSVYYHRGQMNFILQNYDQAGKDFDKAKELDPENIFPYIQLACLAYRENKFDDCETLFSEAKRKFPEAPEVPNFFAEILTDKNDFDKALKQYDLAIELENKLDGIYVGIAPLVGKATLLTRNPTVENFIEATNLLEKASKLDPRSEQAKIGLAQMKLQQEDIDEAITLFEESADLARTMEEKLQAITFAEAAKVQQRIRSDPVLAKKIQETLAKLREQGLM

AAC_(Δpos) (AAC with all positively charged residues of the matrix loops exchanged against glycine), sequence (P02723 whole entry, stated change not applied): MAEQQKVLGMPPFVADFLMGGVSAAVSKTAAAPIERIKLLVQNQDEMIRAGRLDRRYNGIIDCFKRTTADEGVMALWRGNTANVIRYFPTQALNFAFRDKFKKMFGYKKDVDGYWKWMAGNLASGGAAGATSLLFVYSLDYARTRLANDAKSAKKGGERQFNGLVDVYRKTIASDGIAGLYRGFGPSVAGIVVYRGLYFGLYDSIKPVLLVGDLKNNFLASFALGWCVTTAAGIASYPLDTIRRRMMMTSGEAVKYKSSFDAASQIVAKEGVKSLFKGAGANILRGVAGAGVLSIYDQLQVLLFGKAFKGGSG
cytosolic domain of yeast Tom70 (His-Tom70_(38–617)) (yeast (Saccharomyces cerevisiae)), sequence (P07213 38-617): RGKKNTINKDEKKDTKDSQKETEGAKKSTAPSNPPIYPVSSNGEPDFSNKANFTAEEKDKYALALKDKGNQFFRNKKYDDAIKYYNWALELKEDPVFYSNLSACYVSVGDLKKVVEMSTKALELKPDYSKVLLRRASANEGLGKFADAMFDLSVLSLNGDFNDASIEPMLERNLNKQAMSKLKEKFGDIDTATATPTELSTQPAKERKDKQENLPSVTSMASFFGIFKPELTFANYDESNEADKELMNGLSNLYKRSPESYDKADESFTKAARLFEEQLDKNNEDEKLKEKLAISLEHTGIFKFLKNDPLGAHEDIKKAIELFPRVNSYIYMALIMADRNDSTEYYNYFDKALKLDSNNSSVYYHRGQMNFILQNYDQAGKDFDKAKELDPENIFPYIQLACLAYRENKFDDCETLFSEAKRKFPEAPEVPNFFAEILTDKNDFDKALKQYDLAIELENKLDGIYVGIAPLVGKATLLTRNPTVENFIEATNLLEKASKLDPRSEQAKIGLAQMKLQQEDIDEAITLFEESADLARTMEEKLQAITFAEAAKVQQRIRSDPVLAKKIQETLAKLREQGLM
S. cerevisiae AAC2, sequence (P18239 whole entry, the tested form may be a part): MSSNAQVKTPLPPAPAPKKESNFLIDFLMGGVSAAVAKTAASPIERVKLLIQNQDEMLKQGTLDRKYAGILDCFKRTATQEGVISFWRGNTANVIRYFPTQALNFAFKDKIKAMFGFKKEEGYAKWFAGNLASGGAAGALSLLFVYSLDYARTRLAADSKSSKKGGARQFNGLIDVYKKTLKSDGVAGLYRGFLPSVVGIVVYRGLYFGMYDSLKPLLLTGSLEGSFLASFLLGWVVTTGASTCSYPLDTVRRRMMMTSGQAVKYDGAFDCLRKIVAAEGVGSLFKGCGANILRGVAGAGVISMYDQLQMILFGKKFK
ADP/ATP carrier (AAC) of Neurospora crassa, wild type, sequence (P02723 whole entry): as the sequence (P02723 whole entry, stated change not applied) above
Tom70cd pretreated with N-ethylmaleimide (NEM) (yeast (Saccharomyces cerevisiae)), sequence (P07213 38-617): as the sequence (P07213 38-617) above

AAC_(Δpos) (AAC with all positively charged residues of the matrix loops exchanged against glycine) (from UniProt P02723 1-313) (natural protein)
percent of the total radiolabelled protein bound [1]: 15 to 20%

ADP/ATP carrier (AAC) of Neurospora crassa, wild type (from UniProt P02723 1-313) (natural protein)
reduction of the binding efficiency against untreated Tom70cd [2]: 50%

S. cerevisiae AAC2 (from UniProt P18239 1-318) (natural protein)
decrease in binding of [35S]-AAC2 to isolated mitochondria containing wild type Tom70, pretreated with 2 mM NEM against untreated (Fig. 3f) [3]: 50%
